These are literature values, as cited in patent US11033606B2, “Composition comprising aflibercept, folinic acid, 5-fluorouracil (5-FU) and irinotecan (FOLFIRI)” (SANOFI, priority 2011, dated 2021).

Series [1] deals with previously treated patients with metastatic colorectal cancer. Particulars: pre-treated patients with MCRC.
For series [2], the system named is non-small cell lung cancer (NSCLC). Conditions: aflibercept added to docetaxel vs docetaxel plus placebo, second-line NSCLC.

For the substance “aflibercept: fusion protein: VEGFR1 D2 Ig domain fused to VEGFR2 D3 Ig domain, fused to IgG1 Fc domain (SEQ ID No 1)”, the Tolerability entry in series [1] is “well tolerated”. The “Primary endpoint of improvement in overall survival” value in series [2] was “did not meet the pre-specified criteria”.
